The values below come from patent US20030078221.

In series [1] the target is Complement C5 (Homo sapiens) (UniProt P01031+P01031). As to the kind of experiment: filter. Conditions: 2'-F pyrimidines.
The target in the next series is Complement C1q (Homo sapiens?) (UniProt P02745+P02746+P02747). As to the kind of experiment: filter. Conditions: MgPBS 37C.
Chain of Complement C1q (Homo sapiens?) (P02745 23-245, chain 1 of 3): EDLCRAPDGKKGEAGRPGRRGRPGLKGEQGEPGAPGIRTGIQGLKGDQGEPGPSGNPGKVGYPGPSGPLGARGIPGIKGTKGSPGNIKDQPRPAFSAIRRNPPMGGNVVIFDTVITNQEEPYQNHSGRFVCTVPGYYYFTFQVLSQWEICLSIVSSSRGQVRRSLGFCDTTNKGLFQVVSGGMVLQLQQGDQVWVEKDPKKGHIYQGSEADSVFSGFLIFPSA
Chain of Complement C1q (Homo sapiens?) (P02746 28-253, chain 2 of 3): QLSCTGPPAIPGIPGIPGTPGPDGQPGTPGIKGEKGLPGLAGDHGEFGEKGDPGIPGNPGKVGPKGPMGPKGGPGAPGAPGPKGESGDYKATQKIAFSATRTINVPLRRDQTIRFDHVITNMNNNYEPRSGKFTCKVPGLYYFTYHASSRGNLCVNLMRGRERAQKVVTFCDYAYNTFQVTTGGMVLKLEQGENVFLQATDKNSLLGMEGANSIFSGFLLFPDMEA
Chain of Complement C1q (Homo sapiens?) (P02747 29-245, chain 3 of 3): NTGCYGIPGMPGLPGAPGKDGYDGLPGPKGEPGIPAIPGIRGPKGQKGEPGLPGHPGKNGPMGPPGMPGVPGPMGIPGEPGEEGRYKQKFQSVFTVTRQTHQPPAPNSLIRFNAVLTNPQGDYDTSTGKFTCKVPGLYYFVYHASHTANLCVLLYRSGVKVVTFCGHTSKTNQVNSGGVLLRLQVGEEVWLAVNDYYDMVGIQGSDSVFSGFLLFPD

One may read the Kd as a measure of binding affinity in units of concentration. A low value points to tighter binding. For “GGGAGGACGAUGCGGNNNNNNNNNNNNNNNNNNNNNNNNNNNNNNCAGACGACUCGCCCGA [random 30N7 2'-F RNA pool]”, the Kd in series [1] (random pool, likely should be larger) was more than 1 nM; with Complement C1q (2'-F pyrimidines), 2300 nM.

Consider “GGGAGGACGAUGCGGNNNNNNNNNNNNNNNNNNNNNNNNNNNNNNNNNNNNNNNNNNNNNNNNNNCAGACGACUCGCCCGA [random 50N7 2'-NH2 RNA pool]”, for which the Kd with Complement C1q (2'-NH2 pyrimidines) is 2300 nM.

With “GGGAGGACGAUGCGGUGUUCAGCAUUCAGNAUCUUCACGUGUCGUCAGACGACUCGCCCGA [G3]”, the Kd in series [1] (MgPBS 37C) was found to be 55 nM.
